Source: patent publication US6887705B1, “Tyrosine phosphorylated cleavage furrow-associated proteins (PSTPIPs)” (Genentech, Inc., priority 1997, dated 2005)
Changes are numbered by the printed parent chain.

Columns and labels:
Assay in all cases: in vitro translated PTP HSCF mutant precipitated with 1 or 10 µg/ml GST PST PIP
[1] = target: T1, PTP HSCF with P440 mutated to alanine, HA tagged (UniProt Q61152 1-453)
T1 construct: range 1-453; also called HSCF P440
T1 sequence (looked up): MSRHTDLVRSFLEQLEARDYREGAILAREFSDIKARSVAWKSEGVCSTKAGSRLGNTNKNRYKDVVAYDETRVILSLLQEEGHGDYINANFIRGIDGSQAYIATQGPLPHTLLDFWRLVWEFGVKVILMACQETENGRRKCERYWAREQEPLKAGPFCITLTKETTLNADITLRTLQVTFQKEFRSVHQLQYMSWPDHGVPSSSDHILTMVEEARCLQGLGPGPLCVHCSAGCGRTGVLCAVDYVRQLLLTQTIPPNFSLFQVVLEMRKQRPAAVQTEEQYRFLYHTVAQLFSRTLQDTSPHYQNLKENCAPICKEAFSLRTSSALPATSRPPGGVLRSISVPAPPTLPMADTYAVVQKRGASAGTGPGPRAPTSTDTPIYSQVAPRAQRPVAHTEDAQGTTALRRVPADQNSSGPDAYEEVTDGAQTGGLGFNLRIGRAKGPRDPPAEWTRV
Experimental: (§1) Multiple bands precipitated with the GST PST PIP fusion protein are apparently C-terminal proteolyzed products of the PTP. Also shown are GST PST PIP precipitations (10 μg/ml) performed on a double mutant of PTP HSCF (R+W) with both residues $R444$ and $W450$ mutated to alanine (bottom panel FIG. 14 A/2). B. COS cells were co-transfected with a 10:1 ratio of plasmids encoding hemagglutinin (HA) tagged PTP HSCF with the illustrated alanine substitutions or a mutant of PTP HSCF deleted for the C-terminal 24 amino acids (PTP $HSCFD24$) and wild type PST PIP with a C-terminal FLAG epitope tag, respectively. Transfected cell lysates were immunoprecipitated with anti-HA monoclonal antibodies and the precipitates were blotted with anti-PST PIP polyclonal antibody to detect the relative amounts of PST PIP complexed with either wild type or different mutant forms of PTP HSCF. Lysates were also immunoprecipitated with anti-HA antibody and blotted with the same antibody to insure equal expression of PTP HSCF. Equal expression of PSTPIP was determined by immunoprecipitating lysates with anti-FLAG monoclonal antibody and blotting with anti-PST PIP polyclonal antibody.
(§2) In vitro binding analyses between various PTP HSCF and PST PIP constructs were performed as previously described (Spencer et al, (1997), supra). Briefly, plasmids were transcribed and translated in vitro using the TnT Rabbit Reticulocyte Lysate System (Promega). Samples were diluted in 50 mM HEPES, pH 7.2, 1% triton X-100, 10% glycerol, 100 mM NaCl, and 2 µg/ml each of leupeptin, pepstatin, aprotinin and PMSF (lysis buffer). Samples were than reacted with GST fusion proteins at various concentrations, and the bound proteins were centrifuged using glutathione-sepharose beads and analyzed on SDS polyacrylamide gels. C-terminally-derived peptide inhibition studies were performed by incubating the GST fusion protein binding reactions in the presence of 10 µg/ml of the indicated peptides. Peptides were produced by FMOC-protected amino acids as previously described (Spencer et al, (1997), supra). In vivo interactions between various forms of PTP HSCF and PST PIP were also performed as previously described (Spencer et al, (1997), supra).

[2] = target: T2, PTP HSCF with P447 mutated to alanine, HA tagged (UniProt Q61152 1-453)
T2 construct: range 1-453; also called HSCF P447
T2 sequence (looked up): T1 sequence (looked up) with A440P, P447A
Experimental: as §1, §2

[3] = target: T3, PTP HSCF with W450 mutated to alanine, HA tagged (UniProt Q61152 1-453)
T3 construct: range 1-453; also called HSCF W450
T3 sequence (looked up): T1 sequence (looked up) with A440P, W450A
Experimental: as §1, §2

Measured: binding result

B1: GST-PSTPIP (GST fusion of full-length PSTPIP, amino acids 2-415) (other)
chain: MAQLQFRDAFWCRDFTAHTGYEVLLQRLLDGRKMCKDVEELLRQRAQAEERYGKELVQIARKAGGQTEMNSLRTSFDSLKQQTENVGSAHIQLALALREELRSLEEFRERQKEQRKKYEAIMDRVQKSKLSLYKKTMESKKAYDQKCRDADDAEQAFERVSANGHQKQVEKSQNKAKQCKESATEAERVYRQNIEQLERARTEWEQEHRTTCEAFQLQEFDRLTILRNALWVHCNQLSMQCVKDDELYEEVRLTLEGCDVEGDINGFIQSKSTGREPPAPVPYQNYYDREVTPLIGSPSIQPSCGVIKRFSGLLHGSPKTTPSAPAASTETLTPTPERNELVYASIEVQATQGNLNSSAQDYRALYDYTAQNSDELDISAGDILAVILEGEDGWWTVERNGQRGFVPGSYLEKL
notes: Made in DH5-alpha bacteria from pGEX4T-2; also called GST-full-length PSTPIP; GST PTP PIP; not shown: glutathione S-transferase encoded by pGEX-4T-2 (Pharmacia)
binds: [1] | [2] | [3]
